# B1: GC33/2C11: ERY974 surrogate antibody; GPC3-side chains SEQ ID NO: 443/444, CD3-side chains SEQ ID NO: 445/446 (protein)
# chain 1: QVQLVQSGAEVKKPGASVKVSCKASGYTFTDYEMHWIRQPPGQGLEWIGAIDPKTGDTAYSQKFKGRVTLTADKSTSTAYMELSSLTSEDTAVYYCTRFYSYTYWGQGTLVTVSSAKTTPPSVYPLAPGSAAQTNSMVTLGCLVKGYFPEPVTVTWNSGSLSSGVHTFPAVLQSDLYTLSSSVTVPSSTWPSETVTCNVAHPASSTKVDKKIVPRDCGCKPCICTVKEVSKVFIFPPKPKDVLTITLTPKVTCVVVDISKDDPEVQFSWFVDDVEVHTAQTQPREEQFNSTFRSVSELPIMHQDWLNGKEFKCRVNSAAFPAPIEKTISKTKGRPKAPQVYTIPPPKEQMAKDKVSLTCMITDFFPEDITVEWQWNGQPAENYKNTQPIMDTDGSYFVYSELNVQKSNWEAGNTFTCSVLHEGLHNHHTEKSLSHSPGK
# chain 2: DIVMTQSPLSLPVTPGEPASISCRSSQSLVHSNRNTYLHWYQQKPGQAPRLLIYKVSNRFSGVPDRFSGSGSGTDFTLKISRVEAEDVGVYYCSQNTHVPPTFGQGTKLEIKRADAAPTVSIFPPSSEQLTSGGASVVCFLNNFYPKDINVKWKIDGSERQNGVLNSWTDQDSKDSTYSMSSTLTLTKDEYERHNSYTCEATHKTSTSPIVKSFNRNEC
# chain 3: EVQLVESGGGLVQPGKSLKLSCEASGFTFSGYGMHWVRQAPGRGLESVAYITSSSINIKYADAVKGRFTVSRDNAKNLLFLQMNILKSEDTAMYYCARFDWDKNYWGQGTMVTVSSAKTTPPSVYPLAPGSAAQTNSMVTLGCLVKGYFPEPVTVTWNSGSLSSGVHTFPAVLQSDLYTLSSSVTVPSSTWPSETVTCNVAHPASSTKVDKKIVPRDCGCKPCICTVKEVSKVFIFPPKPKDVLTITLTPKVTCVVVDISKDDPEVQFSWFVDDVEVHTAQTQPREEQFNSTFRSVSELPIMHQDWLNGKEFKCRVNSAAFPAPIEKTISKTKGRPKAPQVYTIPPPKEQMAKDKVSLTCMITDFFPEDITVEWQWNGQPAENYKNTQPIMRTDGSYFVYSKLNVQKSNWEAGNTFTCSVLHEGLHNHHTEKSLSHSPGK
# chain 4: DIQMTQSPSSLPASLGDRVTINCQASQDISNYLNWYQQKPGKAPKLLIYYTNKLADGVPSRFSGSGSGRDSSFTISSLESEDIGSYYCQQYYNYPWTFGPGTKLEIKRADAAPTVSIFPPSSEQLTSGGASVVCFLNNFYPKDINVKWKIDGSERQNGVLNSWTDQDSKDSTYSMSSTLTLTKDEYERHNSYTCEATHKTSTSPIVKSFNRNEC
# modifications: H0000-mF18mN4; GL4-mk1; 2C11VH-mF18mP4; 2C11VL-mk1
# Experiments:
# [1] = test system: Hepa1-6/hGPC3 cancer cells; test: Syngeneic mouse model: post-administration of MR-16-1 and drug efficacy of GC33/2C11; type: in vivo, C57BL/6 mice
# Description: In a study using a syngeneic mouse model, a study for evaluating the effect of post-administration of an anti-mouse IL6 receptor antibody, MR-16-1, on the drug efficacy of ERY974 surrogate antibodies was carried out as follows. Hepa1-6/hGPC3 cancer cells, which are mouse cancer cell line Hepa1-6 made to highly express human GPC3, were transplanted subcutaneously in C57BL/6 mice. The day of transplantation was set to day 0. On day 16, grouping was performed according to tumor size and body weight. On day 17, GC33/2C11 was first administered into the tail vein at 0.2 or 5 mg/kg, and two hours later, MR-16-1 was administered into the tail vein at 30 mg/kg. MR-16-1 was administered six times in total (on days 17, 21, 24, 28, 31, and day 35). GC33/2C11 was administered once, only on day 17.
# [2] = test system: Hepa1-6/hGPC3 cancer cells; test: Syngeneic mouse model: pre-administration of MR-16-1 and drug efficacy of GC33/2C11; type: in vivo, C57BL/6 mice
# Description: In a test using a syngeneic mouse model, a study for evaluating the effect of pre-administration of an anti-mouse IL6 receptor antibody, MR-16-1 (see Okazaki M, et al., Characterization of anti-mouse interleukin-6 receptor antibody, Immunol Lett. 2002 Dec. 3; 84(3):231-40; and Saito T, et al., Preparation of soluble murine IL-6 receptor and anti-murine IL-6 receptor antibodies, J. Immunol., 47 (1991), pp. 168-173), on the drug efficacy of ERY974 surrogate antibodies was carried out as follows. Hepa1-6/hGPC3 cancer cells, which are mouse cancer cell line Hepa1-6 made to highly express human GPC3, were transplanted subcutaneously in C57BL/6 mice. The day of transplantation was set to day 0. On day 18, grouping was performed according to tumor size and body weight. MR-16-1 was administered into the tail vein at 30 mg/kg on day 18. On day 19, the day after MR-16-1 administration, GC33/2C11 was administered into the tail vein at 0.2 and 5 mg/kg. MR-16-1 was administered six times in total (on days 18, 21, 25, 28, 32 and day 35). GC33/2C11 was administered once, only on day 19. GC33/2C11 was an antibody comprising the amino acid sequence of SEQ ID NO: 443 as the GPC3-side heavy chain, the amino acid sequence of SEQ ID NO: 444 as the GPC3-side light chain, the amino acid sequence of SEQ ID NO: 445 as the CD3-side heavy chain, and the amino acid sequence of SEQ ID NO: 446 as the CD3-side light chain.
molecule,measurement,setting,value
B1,Antitumor activity (%),"[1]; Group 2: GC33/2C11 0.2 mg/kg tail vein, day 17, alone",102%
same,Antitumor activity (%),"[1]; Group 3: GC33/2C11 5 mg/kg tail vein, day 17, alone",109%
same,Antitumor activity (%),"[1]; Group 5: GC33/2C11 0.2 mg/kg day 17, 2 hours before MR-16-1 (30 then 15 mg/kg, day 17, 21, 24, 28, 31, 35)",103%
same,Antitumor activity (%),"[1]; Group 6: 5 mg/kg day 17, 2 hours before MR-16-1 (30 then 15 mg/kg, day 17, 21, 24, 28, 31, 35)",109%
same,Antitumor activity (%),"[2]; Group 2: GC33/2C11 0.2 mg/kg tail vein, day 19, alone",80%
same,Antitumor activity (%),"[2]; Group 3: GC33/2C11 5 mg/kg tail vein, day 19, alone",110%
same,Antitumor activity (%),"[2]; Group 5: GC33/2C11 0.2 mg/kg day 19 after pre-administration of MR-16-1 (30 then 15 mg/kg, day 18, 21, 25, 28, 32, 35)",99%
same,Antitumor activity (%),"[2]; Group 6: 5 mg/kg day 19 after pre-administration of MR-16-1 (30 then 15 mg/kg, day 18, 21, 25, 28, 32, 35)",107%
